The test concerns the target recombinant N-terminal SH3 domain (SH3N) of CRKL with a C-terminal hexahistidine tag (human). Put plainly: dynamic mass redistribution.

Take QPPPVPAKKS [peptide corresponding to the second PXXPXK motif of SASH1 (aa982–991)]: the Kd (as a rule, the free concentration of one partner at which half of the binding sites on the other are occupied at equilibrium, for simple one-to-one binding) is 7.38 µM.
